Results: patent US12508311B2, “Fusion protein, and preparation method and use thereof” (SUN YAT-SEN UNIVERSITY, priority 2021, dated 2025)
No end group written: not given here.

Tests used:
[1] = tested on: normal human intestinal epithelial cells FHC; test: Effect of gefitinib on normal cells (FHC control in CCK-8 / clone formation); format: cell-based; conditions: gefitinib 4 μM
Excerpt: • (1) The colorectal cancer cells HT29 (KRas wt) and HCT116 (KRas G13D) in the logarithmic growth phase and the normal human intestinal epithelial cells FHC were digested with pancreatin and then prepared into a single cell suspension, and the cells were evenly inoculated in a 12-well plate by 500 cells per well. […] Cell culture solution was replaced every other 1-2 days, and the culture was stopped until cell clones (more than 50 cells were considered as one clone) were seen under a light microscope. • (3) After the supernatant of each group was discarded, the cells were washed twice with the PBS buffer solution, and dried in air. A proper amount of methanol stationary liquid was added into each well for cell fixation for 15 minutes, and residual stationary liquid in the well was washed off with PBS solution, and dried in air. A proper amount of crystal violet staining solution was added into each well for cell staining for 15 minutes, and residual staining solution in the well was washed off with PBS solution, and dried in air. The cell clones seen in the auxiliary wells of each group were counted under an inverted microscope and the number of the clones was calculated. • (4) Statistical analysis was carried out by using GraphPad Prism8 software, and one way anova was used to compare means of multiple groups. The difference was statistically significant when P<0.05.

[2] = tested on: tumors derived from the KRas mutant-type HCT116 cells; test: In vivo Cy5 imaging of tumor targeting, HCT116 tumors; set-up: species or system mice; conditions: tail vein 60 μM, 100 μL, 2.5 hours, compared with Cy5 single molecule
Excerpt: (§1) • (1) 10 female Balb/c nude mice aged 4 weeks to 5 weeks (Guangdong Laboratory Animal Center) were purchased, and then 500,000 HT29cells and 500,000 HCT116 cells were subcutaneously injected into left and right sides of the mice respectively. One week later, the mice were divided into two groups, with five mice in each group, which were the experimental group and the control group respectively. Raising and experiment of the mice were both carried out in the Laboratory Animal Center of Sun Yat-sen University, and all the operations were in accordance with the management method of laboratory animals of Sun Yat-sen University and complied with the animal ethical rules. • (2) The TKD-Cy5 molecule and the Cy5 single molecule constructed above were injected into the mice by tail vein at a concentration of 60 μM and a volume of 100 μL, wherein the TKD-Cy5 injection group was the experimental group and the Cy5 single molecule injection group was the control group. • (3) After 2.5 hours of tail vein injection, the mice were anesthetized with isoflurane. Cy5 imaging detection was conducted by using IVIS Lumina (PerkinElmer), with a fluorescence detection form of fluorescence. • (4) Experimental results were shown in FIG. 15.

[3] = tested on: tumors derived from the KRas wild-type cells HT29; test: In vivo Cy5 imaging of tumor targeting, HT29 tumors; set-up: species or system mice; conditions: tail vein 60 μM, 100 μL, 2.5 hours, compared with Cy5 single molecule
Excerpt: as §1

[4] = In vivo Cy5 imaging, other tissues and organs; set-up: species or system mice; conditions: tail vein 60 μM, 100 μL; 2.5 hours
Excerpt: as §1

Compound | toxic and side effects on normal cells [1] | aggregation in tumors (Cy5 imaging) [2] | aggregation in tumors (Cy5 imaging) [3] | targeting of other tissues and organs (Cy5 imaging) [4]
COc1cc2ncnc(Nc3ccc(F)c(Cl)c3)c2cc1OCCCN1CCOCC1 [gefitinib] | could not cause toxic and side effects on normal cells |  |  | 
TKD-Cy5: TKD molecules labeled with fluorescent dye Cy5 to form TKD-Cy5 covalent conjugates (TKDNNLLGRFELSG; also: Cy5 dye conjugate, site not given here; UniProt P0DMV8 450-463, looked up, fragment) |  | could aggregate in tumors | could aggregate in tumors | except bladder retention caused by metabolism in vivo as in the control group, TKD-Cy5 could not target other tissues and organs of the mice
